{"source": "paper PMC6601554", "origin": "cited, not measured here", "molecular_target": "Mouse neonatal Fc receptor (FcRn) (UniProt Q61559)", "sequence (Q61559 whole entry)": "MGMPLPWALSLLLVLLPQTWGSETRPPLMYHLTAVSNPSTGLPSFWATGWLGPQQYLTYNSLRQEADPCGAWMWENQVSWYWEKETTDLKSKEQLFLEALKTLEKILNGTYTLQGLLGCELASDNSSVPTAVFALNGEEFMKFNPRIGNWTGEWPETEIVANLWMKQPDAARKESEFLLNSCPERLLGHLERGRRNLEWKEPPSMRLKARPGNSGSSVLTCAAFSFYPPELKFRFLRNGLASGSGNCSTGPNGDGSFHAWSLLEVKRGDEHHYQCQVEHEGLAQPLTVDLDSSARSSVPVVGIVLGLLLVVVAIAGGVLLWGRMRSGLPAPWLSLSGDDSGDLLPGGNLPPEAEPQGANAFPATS", "test": "not stated in this article", "data": [{"substance": "MST-HN human IgG1 (Abdeg; mutated humanized anti-hen egg lysozyme HuLys10) M252Y;S254T;T256E;H433K;N434F", "values": [{"measurement": "Kd", "setting": "pH 6.0", "result": 1.2, "unit": "nM"}, {"measurement": "Kd", "setting": "pH 7.2", "result": 7.4, "unit": "nM"}]}]}
